Test results as given in patent US9926355 (NEW YORK UNIVERSITY, dated 2018).
Each block holds one binder with its values, some of them ahead of it.

Assays:
[1] = molecular target: T1, ligand-binding domain of human FGFR1c (D142 to R365) (human, UniProt P11362 142-365); assay: SPR; FGF23 immobilized, increasing concentrations of FGFR1c ligand-binding domain; KD only in the figure
T1 construct: range 142-365
T1 sequence (looked up): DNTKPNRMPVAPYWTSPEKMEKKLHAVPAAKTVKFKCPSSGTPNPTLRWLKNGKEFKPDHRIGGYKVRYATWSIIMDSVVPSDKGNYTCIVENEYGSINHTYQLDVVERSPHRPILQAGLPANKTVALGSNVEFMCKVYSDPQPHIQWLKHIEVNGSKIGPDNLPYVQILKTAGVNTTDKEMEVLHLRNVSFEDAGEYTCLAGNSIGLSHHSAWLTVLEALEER
Excerpt: (§1) FIGS. 10A-10D show overlays of SPR sensorgrams illustrating binding of FGFR1c to FGF2 (FIG. 10A), FGF19 (FIG. 10B), FGF21 (FIG. 10C), and FGF23 (FIG. 10D), and fitted saturation binding curves. Increasing concentrations of FGFR1c ligand-binding domain were passed over a biosensor chip containing immobilized FGF2, FGF19, FGF21, or FGF23. […] Increasing concentrations of αKlotho-FGFR1c complex were passed over a biosensor chip containing immobilized FGF23. […] FGF2^3C-tail was immobilized on a biosensor chip and increasing concentrations of FGFR1c ligand-binding domain were passed over the chip. Dissociation constants (K_Ds) given in FIGS. 10A-10E were derived from the saturation binding curves.
(§2) Example 2—Analysis of FGF-Heparin and FGF-FGFR-α/Klotho Interactions by Surface Plasmon Resonance Spectroscopy Surface plasmon resonance (SPR) experiments were performed on a Biacore 2000 instrument (Biacore AB), and the interactions were studied at 25° C. in HBS-EP buffer (10 mM HEPES-NaOH, pH 7.4, 150 mM NaCl, 3 mM EDTA, 0.005% (v/v) polysorbate 20). To study endocrine FGF-heparin interactions, a heparin chip was prepared by immobilizing biotinylated heparin (Sigma-Aldrich) on flow channels of a research-grade streptavidin chip (Biacore AB). The coupling density was ~5 fmol mm^-2 of flow channel. […]

[2] = molecular target: T1, ligand-binding domain of human FGFR1c …; assay: SPR; immobilized FGF21, FGFR1c ligand-binding domain in solution
Excerpt: as §1, §2

[3] = molecular target: T1, ligand-binding domain of human FGFR1c …; assay: SPR; FGF23 C-tail peptide immobilized, increasing concentrations of FGFR1c ligand-binding domain
Excerpt: as §1, §2

- binding result [1]: binds
B1: N-terminally hexahistidine-tagged, mature form of human FGF23 (Y25 to I251), R176Q/R179Q (ligand)
chain: YPNASPLLGSSWGGLIHLYTATARNSYHLQIHKNGHVDGAPHQTIYSALMIRSEDAGFVVITGVMSRRYLCMDFRGNIFGSHYFDPENCRFQHQTLENGYDVYHSPQYHFLVSLGRAKRAFLPGMNPPPYSQFLSRRNEIPLIHFNTPIPRQHTQSAEDDSERDPLNVLKPRARMTPAPASCSQELPSAEDNSPMASDPLGVVRGGRVNTHAGGTGPEGCRPFAKFI
notes: also called native FGF23; wild-type FGF23; not shown: N-terminal hexahistidine tag

- binding result [2]: binds
B2: N-terminally hexahistidine-tagged, mature form of human FGF21 (H29 to S209) (ligand)
chain: HPIPDSSPLLQFGGQVRQRYLYTDDAQQTEAHLEIREDGTVGGAADQSPESLLQLKALKPGVIQILGVKTSRFLCQRPDGALYGSLHFDPEACSFRELLLEDGYNVYQSEAHGLPLHLPGNKSPHRDPAPRGPARFLPLPGLPPALPEPPGILAPQPPDVGSSDPLSMVGPSQGRSPSYAS
notes: also called native FGF21; not shown: N-terminal hexahistidine tag

- binding result [3]: no binding
B3: N-terminally hexahistidine-tagged C-terminal tail peptide of FGF23 (S180 to I251) (peptide)
peptide: SAEDDSERDPLNVLKPRARMTPAPASCSQELPSAEDNSPMASDPLGVVRGGRVNTHAGGTGPEGCRPFAKFI
notes: also called FGF23^C-tail; not shown: N-terminal hexahistidine tag
